Results taken from the supplement of paper PMC10065799, “High-throughput profiling of sequence recognition by tyrosine kinases and SH2 domains using bacterial peptide display” (eLife, 2023).

Legend:
AncSZ = experiment: phosphorylation enrichment, bacterial display (enrichment ratio); higher = better substrate or ligand; peptides without Tyr show the background
MERTK = MERTK (UniProt Q12866); experiment: as above
FGFR1 = FGFR1 (UniProt P11362); experiment: as above
Fyn = Fyn (UniProt P06241); experiment: as above
c-Src = experiment: as above
EPHB1 = EPHB1 (UniProt P54762); experiment: as above
c-Abl (mouse) = experiment: as above
EPHB2 = EPHB2 (UniProt P29323); experiment: as above
Fes = Fes (UniProt P07332); experiment: as above
Hck = Hck (UniProt P08631); experiment: as above
Fer (mouse) = experiment: as above
FGFR3 = FGFR3 (UniProt P22607); experiment: as above
Jak2 = Jak2 (UniProt O60674); experiment: as above
Grb2 SH2 = Grb2 SH2 (UniProt P62993); experiment: SH2 binding enrichment of the phosphorylated peptide, bacterial display (enrichment ratio); higher = better substrate or ligand; peptides without Tyr show the background
SHP2-C SH2 = experiment: as above
c-Src SH2 = experiment: as above
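Throughout, for SH2 binding enrichment of the phosphorylated peptide, bacterial display: peptide library displayed on the E. coli surface as eCPX fusions, selected cells deep-sequenced, score is each peptide's frequency after selection divided by its frequency in the input.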
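Throughout, for phosphorylation enrichment, bacterial display: 11-residue human phosphosite peptides and single-mutation variants displayed on the E. coli surface, counted by deep sequencing, each peptide's frequency after selection divided by its frequency in the unselected input library; frequency after pTyr selection over input frequency; kinase dosed for 20-30% of maximal phosphorylation in three min.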

FGFR1, sequence (P11362 whole entry, looked up): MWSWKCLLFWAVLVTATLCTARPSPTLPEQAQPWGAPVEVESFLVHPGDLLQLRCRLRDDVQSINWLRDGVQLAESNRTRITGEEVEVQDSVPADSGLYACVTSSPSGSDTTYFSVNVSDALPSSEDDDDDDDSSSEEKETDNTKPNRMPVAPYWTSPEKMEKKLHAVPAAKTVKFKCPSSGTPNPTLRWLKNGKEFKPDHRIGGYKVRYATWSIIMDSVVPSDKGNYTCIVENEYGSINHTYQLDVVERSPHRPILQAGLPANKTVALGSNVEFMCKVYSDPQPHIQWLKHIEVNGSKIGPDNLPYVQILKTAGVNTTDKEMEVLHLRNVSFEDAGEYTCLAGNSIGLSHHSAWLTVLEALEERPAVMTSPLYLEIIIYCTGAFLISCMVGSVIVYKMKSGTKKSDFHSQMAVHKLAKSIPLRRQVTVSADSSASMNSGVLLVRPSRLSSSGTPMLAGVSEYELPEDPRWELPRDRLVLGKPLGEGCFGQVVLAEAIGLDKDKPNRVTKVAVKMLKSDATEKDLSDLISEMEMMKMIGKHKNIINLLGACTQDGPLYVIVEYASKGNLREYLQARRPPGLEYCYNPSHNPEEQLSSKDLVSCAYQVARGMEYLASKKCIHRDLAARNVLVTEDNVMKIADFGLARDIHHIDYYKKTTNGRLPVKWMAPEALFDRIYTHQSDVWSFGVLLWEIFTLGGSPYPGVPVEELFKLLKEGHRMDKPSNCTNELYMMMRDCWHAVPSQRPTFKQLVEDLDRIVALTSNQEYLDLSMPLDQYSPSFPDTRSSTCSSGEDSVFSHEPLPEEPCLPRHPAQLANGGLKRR
FGFR3, sequence (P22607 whole entry, looked up): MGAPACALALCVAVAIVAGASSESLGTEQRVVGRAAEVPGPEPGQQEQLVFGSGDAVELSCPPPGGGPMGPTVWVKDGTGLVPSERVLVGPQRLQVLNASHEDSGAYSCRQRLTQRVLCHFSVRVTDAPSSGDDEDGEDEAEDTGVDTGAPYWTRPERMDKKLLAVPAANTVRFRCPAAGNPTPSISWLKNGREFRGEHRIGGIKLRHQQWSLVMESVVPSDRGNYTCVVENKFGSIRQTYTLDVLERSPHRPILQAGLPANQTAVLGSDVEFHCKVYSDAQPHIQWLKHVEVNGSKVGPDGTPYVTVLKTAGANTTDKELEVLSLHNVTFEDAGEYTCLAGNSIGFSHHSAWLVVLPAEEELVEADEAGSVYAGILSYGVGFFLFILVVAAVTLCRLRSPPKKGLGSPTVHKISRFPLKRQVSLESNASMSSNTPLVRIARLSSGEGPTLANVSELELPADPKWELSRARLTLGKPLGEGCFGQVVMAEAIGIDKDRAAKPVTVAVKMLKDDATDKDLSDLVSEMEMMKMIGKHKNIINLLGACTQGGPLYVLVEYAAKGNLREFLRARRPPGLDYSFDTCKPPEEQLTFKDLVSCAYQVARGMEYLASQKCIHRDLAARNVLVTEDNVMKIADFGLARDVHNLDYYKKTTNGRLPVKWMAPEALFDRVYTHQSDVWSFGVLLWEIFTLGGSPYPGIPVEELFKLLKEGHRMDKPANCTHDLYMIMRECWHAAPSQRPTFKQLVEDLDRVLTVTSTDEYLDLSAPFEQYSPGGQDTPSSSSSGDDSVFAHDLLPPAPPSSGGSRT
Hck, sequence (P08631 whole entry, looked up): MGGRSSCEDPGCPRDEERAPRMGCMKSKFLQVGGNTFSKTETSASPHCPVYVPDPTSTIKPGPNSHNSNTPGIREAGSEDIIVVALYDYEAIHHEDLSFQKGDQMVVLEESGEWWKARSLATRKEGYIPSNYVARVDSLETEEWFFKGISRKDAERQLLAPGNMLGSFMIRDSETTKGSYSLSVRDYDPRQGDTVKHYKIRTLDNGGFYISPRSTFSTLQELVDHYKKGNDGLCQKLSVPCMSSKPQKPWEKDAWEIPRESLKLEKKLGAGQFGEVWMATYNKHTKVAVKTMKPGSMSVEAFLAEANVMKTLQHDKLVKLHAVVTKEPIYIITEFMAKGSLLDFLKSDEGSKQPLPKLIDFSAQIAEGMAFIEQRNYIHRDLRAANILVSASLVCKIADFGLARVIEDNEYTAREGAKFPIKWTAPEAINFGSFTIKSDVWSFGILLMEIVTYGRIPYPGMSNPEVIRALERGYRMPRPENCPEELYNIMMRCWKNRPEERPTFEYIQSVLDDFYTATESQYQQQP
Jak2, sequence (O60674 whole entry, looked up): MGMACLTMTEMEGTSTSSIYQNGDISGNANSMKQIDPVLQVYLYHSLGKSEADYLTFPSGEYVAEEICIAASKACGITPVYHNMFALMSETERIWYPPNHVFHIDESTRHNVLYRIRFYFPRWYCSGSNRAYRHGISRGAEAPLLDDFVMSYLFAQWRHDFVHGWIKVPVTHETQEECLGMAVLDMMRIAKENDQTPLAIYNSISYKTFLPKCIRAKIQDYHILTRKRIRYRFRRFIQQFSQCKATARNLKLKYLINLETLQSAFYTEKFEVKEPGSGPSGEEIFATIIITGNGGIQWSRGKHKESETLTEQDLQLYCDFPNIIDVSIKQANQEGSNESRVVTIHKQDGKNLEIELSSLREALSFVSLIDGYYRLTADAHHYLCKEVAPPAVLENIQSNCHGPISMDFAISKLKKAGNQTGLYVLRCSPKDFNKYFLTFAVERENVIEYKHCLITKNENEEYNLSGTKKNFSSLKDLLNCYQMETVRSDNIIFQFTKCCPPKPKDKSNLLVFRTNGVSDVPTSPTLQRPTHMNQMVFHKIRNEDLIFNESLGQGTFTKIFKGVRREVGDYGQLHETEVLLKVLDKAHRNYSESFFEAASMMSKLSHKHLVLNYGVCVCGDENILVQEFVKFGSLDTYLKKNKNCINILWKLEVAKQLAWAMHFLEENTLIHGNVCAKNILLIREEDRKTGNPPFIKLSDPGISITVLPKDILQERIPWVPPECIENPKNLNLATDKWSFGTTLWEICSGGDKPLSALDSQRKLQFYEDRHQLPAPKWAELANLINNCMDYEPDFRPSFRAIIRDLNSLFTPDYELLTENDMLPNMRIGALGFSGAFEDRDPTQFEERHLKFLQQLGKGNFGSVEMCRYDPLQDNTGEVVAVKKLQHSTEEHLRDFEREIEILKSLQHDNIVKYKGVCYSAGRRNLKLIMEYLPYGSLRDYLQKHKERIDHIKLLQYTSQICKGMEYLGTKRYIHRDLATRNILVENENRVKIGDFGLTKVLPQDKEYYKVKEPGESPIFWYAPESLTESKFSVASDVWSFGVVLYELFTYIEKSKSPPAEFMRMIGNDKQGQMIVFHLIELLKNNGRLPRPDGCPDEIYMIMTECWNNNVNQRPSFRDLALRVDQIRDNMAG
MERTK, sequence (Q12866 whole entry, looked up): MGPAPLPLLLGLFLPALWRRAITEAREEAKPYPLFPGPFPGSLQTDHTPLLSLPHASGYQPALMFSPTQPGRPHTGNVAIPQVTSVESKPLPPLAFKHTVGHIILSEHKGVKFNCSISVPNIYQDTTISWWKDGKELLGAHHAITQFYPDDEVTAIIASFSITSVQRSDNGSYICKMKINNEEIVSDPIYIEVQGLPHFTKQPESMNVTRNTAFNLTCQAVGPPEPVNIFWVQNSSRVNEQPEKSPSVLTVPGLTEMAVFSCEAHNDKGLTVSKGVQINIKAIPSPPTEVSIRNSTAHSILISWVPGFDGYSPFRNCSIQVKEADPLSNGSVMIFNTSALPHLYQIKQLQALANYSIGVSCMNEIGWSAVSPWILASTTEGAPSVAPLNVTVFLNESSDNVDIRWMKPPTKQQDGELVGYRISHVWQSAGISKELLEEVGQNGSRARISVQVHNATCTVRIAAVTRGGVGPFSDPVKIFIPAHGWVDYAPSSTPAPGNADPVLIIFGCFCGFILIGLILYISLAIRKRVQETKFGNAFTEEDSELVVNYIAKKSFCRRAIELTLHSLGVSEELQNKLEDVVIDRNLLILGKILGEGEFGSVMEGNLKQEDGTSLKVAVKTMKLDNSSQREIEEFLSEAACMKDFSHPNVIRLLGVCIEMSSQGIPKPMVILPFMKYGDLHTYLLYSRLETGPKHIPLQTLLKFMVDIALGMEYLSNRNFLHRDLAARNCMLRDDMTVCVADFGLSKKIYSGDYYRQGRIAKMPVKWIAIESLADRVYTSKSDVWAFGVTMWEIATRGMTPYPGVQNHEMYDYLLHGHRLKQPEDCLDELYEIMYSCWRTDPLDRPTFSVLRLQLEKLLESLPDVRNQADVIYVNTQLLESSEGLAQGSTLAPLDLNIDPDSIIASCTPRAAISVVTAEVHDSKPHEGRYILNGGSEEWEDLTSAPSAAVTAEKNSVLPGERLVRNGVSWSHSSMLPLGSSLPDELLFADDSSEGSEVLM
Fyn, sequence (P06241 whole entry, looked up): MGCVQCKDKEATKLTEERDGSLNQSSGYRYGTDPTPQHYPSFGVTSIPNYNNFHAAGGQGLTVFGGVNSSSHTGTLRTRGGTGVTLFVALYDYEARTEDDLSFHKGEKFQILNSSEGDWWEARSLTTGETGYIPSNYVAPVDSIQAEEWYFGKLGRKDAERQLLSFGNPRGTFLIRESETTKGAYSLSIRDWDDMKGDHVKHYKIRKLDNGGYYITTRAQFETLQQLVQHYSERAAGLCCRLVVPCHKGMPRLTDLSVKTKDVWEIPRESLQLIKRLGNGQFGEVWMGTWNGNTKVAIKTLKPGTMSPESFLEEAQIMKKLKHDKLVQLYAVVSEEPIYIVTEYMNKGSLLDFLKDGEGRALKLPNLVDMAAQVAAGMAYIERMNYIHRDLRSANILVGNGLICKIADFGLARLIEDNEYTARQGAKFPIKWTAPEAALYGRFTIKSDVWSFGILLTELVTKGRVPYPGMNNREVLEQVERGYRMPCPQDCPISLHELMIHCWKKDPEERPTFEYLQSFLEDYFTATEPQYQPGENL
Grb2 SH2, sequence (P62993 whole entry, looked up): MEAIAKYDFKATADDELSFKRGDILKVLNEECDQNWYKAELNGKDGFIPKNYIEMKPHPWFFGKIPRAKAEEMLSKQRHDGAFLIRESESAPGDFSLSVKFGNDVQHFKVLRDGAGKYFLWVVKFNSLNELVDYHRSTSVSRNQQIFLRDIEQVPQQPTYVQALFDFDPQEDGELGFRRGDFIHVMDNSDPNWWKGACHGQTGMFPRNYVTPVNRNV

| Sequence | phosphorylation enrichment (AncSZ) | phosphorylation enrichment (MERTK) | phosphorylation enrichment (FGFR1) | phosphorylation enrichment (Fyn) | phosphorylation enrichment (c-Src) | phosphorylation enrichment (EPHB1) | phosphorylation enrichment (c-Abl (mouse)) | phosphorylation enrichment (EPHB2) | phosphorylation enrichment (Fes) | phosphorylation enrichment (Hck) | phosphorylation enrichment (Fer (mouse)) | phosphorylation enrichment (FGFR3) | phosphorylation enrichment (Jak2) | SH2 binding enrichment (Grb2 SH2) | SH2 binding enrichment (SHP2-C SH2) | SH2 binding enrichment (c-Src SH2) |
| --- | --- | --- | --- | --- | --- | --- | --- | --- | --- | --- | --- | --- | --- | --- | --- | --- |
| LASLIYNFILF [AQP6_Y231_V234I] | 2.67 | 14.7 | 4.45 | 13.3 | 12.7 | 2.51 | 5.49 | 1.28 | 3.72 | 11.5 | 19 | 4.49 | 2.98 | 0.993 | 1.04 | 1.02 |
| FRDALYKSMVD [PHEX_Y250_F252S_YF] | 0.792 | 0.484 | 0.497 | 0.419 | 0.365 | 0.608 | 0.643 | 0.614 | 0.97 | 0.476 | 0.488 | 0.642 | 0.897 | 0.795 | 0.735 | 0.516 |
| EDDIIYTQDFT [STK11_Y362] | 1.41 | 0.631 | 0.652 | 0.796 | 1.11 | 0.869 | 0.957 | 0.647 | 1.37 | 0.742 | 0.655 | 0.821 | 1.29 | 0.767 | 0.734 | 0.554 |
| GAALAYGLDKS [HSPA9_Y230_A225G] | 0.529 | 0.306 | 0.389 | 0.483 | 0.415 | 0.337 | 0.487 | 0.515 | 0.637 | 0.402 | 0.411 | 0.474 | 0.493 | 0.786 | 0.696 | 0.488 |
| GPKFGYDEIDN [ACOX1_Y232] | 0.993 | 0.381 | 0.42 | 0.406 | 0.453 | 0.44 | 0.531 | 0.688 | 0.874 | 0.359 | 0.344 | 0.527 | 0.765 | 0.845 | 0.658 | 16.7 |
| QDLFLYQTHSE [PKHD1_Y255] | 1.52 | 0.543 | 0.492 | 0.59 | 0.964 | 0.887 | 1.56 | 0.726 | 1.96 | 0.744 | 0.778 | 0.822 | 1.97 | 0.763 | 0.696 | 0.49 |
| LGIDRYHAIVY [NPSR1_Y147_S143G] | 0.717 | 0.446 | 2.82 | 0.442 | 0.621 | 0.443 | 0.437 | 0.523 | 0.814 | 0.683 | 0.408 | 1.84 | 0.775 | 0.823 | 0.818 | 5.09 |
| KPPFSYNALIM [FOXG1_Y186] | 0.641 | 0.525 | 0.455 | 0.438 | 0.512 | 0.424 | 0.57 | 0.488 | 0.724 | 0.472 | 0.461 | 0.628 | 0.632 | 0.726 | 0.497 | 0.403 |
| EVVGRYSLHNA [MLH1_Y183_V185L] | 0.478 | 0.405 | 0.502 | 0.382 | 0.364 | 0.421 | 0.371 | 0.368 | 0.671 | 0.411 | 0.33 | 0.424 | 0.445 | 0.802 | 0.767 | 0.488 |
| YENGEYIVRQG [PRKG1_Y247_I249V] | 1.02 | 0.424 | 0.495 | 0.494 | 0.466 | 0.543 | 0.582 | 0.464 | 0.937 | 0.495 | 0.483 | 0.729 | 0.784 | 32.9 | 1.14 | 8.91 |
| YQEPVYSVAFS [TBL1X_Y509_H504Y] | 5.95 | 12.7 | 6.72 | 12.4 | 8.72 | 18.9 | 29.6 | 26.2 | 4.74 | 11.1 | 17.5 | 5.72 | 0.989 | 0.781 | 0.527 | 2.93 |
| NQDRTYFESVR [SPEN_Y632_YF] | 0.852 | 0.469 | 0.602 | 0.571 | 0.678 | 0.507 | 0.618 | 0.617 | 0.931 | 0.573 | 0.665 | 0.69 | 0.865 | 0.886 | 0.727 | 0.555 |
| GKFFQYDTWNQ [IGF2_Y116_K120N] | 1.06 | 0.588 | 0.643 | 0.51 | 0.872 | 0.545 | 0.78 | 0.7 | 1.07 | 0.741 | 0.533 | 0.639 | 0.933 | 0.746 | 0.718 | 0.761 |
| FSAGTYPRMEE [SYCN_Y108_L111M] | 0.863 | 0.365 | 1.12 | 0.361 | 0.407 | 0.453 | 0.501 | 0.467 | 0.65 | 0.322 | 0.417 | 0.547 | 0.575 | 0.869 | 0.691 | 1.08 |
| GGSSPYSRRLA [CDK13_Y351_P356A] | 0.626 | 0.443 | 0.356 | 0.426 | 0.468 | 0.363 | 0.567 | 0.326 | 0.565 | 0.425 | 0.344 | 0.395 | 0.512 | 0.875 | 1.11 | 0.617 |
| SKEPFYVRCIK [MYO1D_Y586_YF] | 0.939 | 0.347 | 0.42 | 0.339 | 0.354 | 0.951 | 0.727 | 0.56 | 1.18 | 0.434 | 0.449 | 0.634 | 0.921 | 0.8 | 0.79 | 0.413 |
| KNITEYCRDLI [RECQL_Y492] | 0.877 | 0.397 | 0.476 | 0.477 | 0.42 | 0.544 | 0.66 | 0.606 | 1.05 | 0.471 | 0.502 | 0.691 | 0.791 | 0.99 | 0.762 | 0.68 |
| QMVGKYASSYM [AVPR2_Y124_M123K] | 0.626 | 0.475 | 0.29 | 0.529 | 0.459 | 0.336 | 0.786 | 0.401 | 0.736 | 0.379 | 0.266 | 0.452 | 0.717 | 1.02 | 1.21 | 0.654 |
| TENAGYYFRIS | 1.44 | 0.433 | 0.575 | 0.477 | 0.41 | 0.588 | 0.763 | 0.576 | 1.75 | 0.475 | 0.453 | 0.816 | 1.71 | 0.574 | 0.801 | 0.736 |
| KERNQYGGVMV [MMP21_Y347_E349G] | 0.534 | 0.394 | 0.418 | 0.556 | 0.507 | 0.361 | 0.44 | 0.394 | 0.594 | 0.474 | 0.474 | 0.475 | 0.425 | 0.74 | 0.854 | 0.525 |
| IATTIYSGDKI [UGGT2_Y823_A821T] | 0.638 | 0.507 | 0.57 | 0.591 | 0.748 | 0.576 | 0.778 | 0.557 | 0.752 | 0.791 | 0.41 | 0.493 | 0.701 | 0.893 | 0.695 | 0.516 |
| TLLAFYMGNFS [GLB1_Y552_P549L] | 1.18 | 0.625 | 0.435 | 0.408 | 0.98 | 0.943 | 1.06 | 0.661 | 1.49 | 0.62 | 0.559 | 0.839 | 1.59 | 0.835 | 0.805 | 0.464 |
| FGHTFYNQAIM [MCCC2_Y196_R193H] | 0.715 | 0.445 | 0.555 | 0.465 | 0.455 | 0.404 | 0.527 | 0.447 | 0.945 | 0.41 | 0.461 | 0.556 | 0.856 | 1.18 | 1.01 | 0.735 |
| RRFVFYFSFLL [PTEN_Y177_YF] | 1.06 | 0.593 | 0.938 | 0.741 | 0.611 | 0.654 | 0.502 | 0.655 | 0.744 | 0.899 | 0.829 | 0.608 | 0.622 | 0.752 | 0.688 | 0.426 |
| DFLSSYSAVNE [OAT_Y85_Q90E] | 0.896 | 0.49 | 0.55 | 0.531 | 0.468 | 0.504 | 0.566 | 0.596 | 0.953 | 0.554 | 0.525 | 0.685 | 0.745 | 0.864 | 0.902 | 2.35 |
| FFDANCDGKEF [MAPRE2_Y162_Y162C_YF] | 1.26 | 0.472 | 0.455 | 0.973 | 0.537 | 0.573 | 1.09 | 0.62 | 1.27 | 0.58 | 0.521 | 0.662 | 1.11 | 0.687 | 3.8 | 0.54 |
| NPETCYQRLKK [TK2_Y190] | 1.03 | 0.469 | 0.481 | 0.412 | 0.483 | 0.527 | 0.839 | 0.603 | 1.03 | 0.736 | 0.432 | 0.545 | 0.966 | 0.787 | 0.739 | 0.692 |
| ALAHKYLGGGG [HBB_Y146_H147L] | 0.378 | 0.407 | 0.307 | 0.366 | 0.278 | 0.324 | 0.289 | 0.387 | 0.389 | 0.347 | 0.269 | 0.325 | 0.464 | 1.01 | 0.608 | 0.503 |
| IRCQGYSHRIL [MYO3B_Y993_R990C] | 0.723 | 0.471 | 0.423 | 0.493 | 0.523 | 0.46 | 0.493 | 0.558 | 0.664 | 0.475 | 0.47 | 0.506 | 0.649 | 0.925 | 0.915 | 0.824 |
